The values below come from patent US20240228986A1, “ENGINEERED CELLS, ENZYMES, AND METHODS FOR PRODUCING CANNABINOIDS” (priority 2021, published 2024).

Assay [1] deals with olivetolic acid. The assay can be described thus: Screening of MPT library hits in Yarrowia, OA feed (Example 2). The following applies: OA Feed (48 h); for CBGA: 2 mM olivetolic acid, minimal media, 0.5% ethanol, strain sCL-SE-0128, product accumulated; for CBGA/FCBGA: product ratio. Type of assay: cell-based. How it is done: (§1) As described in detail below, plasmid pCL-SE-0337.MPT21,26,31 were transformed into strain sCL-SE-0128 and 4 separate colonies of each were patched and precultured for 48 h. Assay cultures consisted of minimal media with 100 mM MES pH 6.5, 0.5% ethanol and 2 mM olivetolic or divarinic acid (DVA). Cultures with olivetolic acid were quenched with equal volume of ethanol after 48 h total growth while cultures with DVA with quenched after 96 h total growth. Enzymes produced CBGA and FCBGA from olivetolic acid and CBGVA and FCBGVA from DVA. Averages and standard deviations were calculated from replicates.
(§2) Overnight YPD (10 g/L yeast extract, 20 g/L peptone, 2% dextrose) cultures were inoculated from glycerol stocks of the appropriate strain and grown at 30° C. with 250 rpm shaking. Once cultures had reached an OD600 of 4-6, cultures were centrifuged at 500×g for 5 min, supernatants were discarded, and cell pellets were resuspended in equal volume of water. Resuspended cells were centrifuged at 500×g for 5 min, supernatants were discarded, and cells were resuspended in a volume (75 μL×OD×Vculture) of transformation cocktail (45% PEG-400, 0.1 M LiAc, 0.1 M DTT, and 25 ug/100 μL SS Salmon Sperm DNA). For each transformation, >1 μg of plasmid DNA was added to 55 μL cells/transformation cocktail and vortexed for 2 s. Transformations were incubated at 39° C. for 1 h with 250 rpm shaking. Transformations were resuspended in 750 μL YPD with 1 M sorbitol and recovered at 30° C. overnight with 250 rpm shaking. The next day, transformations were centrifuged at 500×g for 5 min, supernatants were discarded, and cell pellets were resuspended in 750 YPD. Resuspended transformations were plated on YPD with appropriate selection or YNBD (6.71 g/L yeast nitrogen base+nitrogen, 0.5% casamino acids, 2% dextrose) agar plates and grown at 30° C. for 2 days. Individual colonies were patched onto YPD plates with appropriate selection or YNBD plates and grown at 30° C. overnight. Patches were used to inoculate 0.5 mL YPD with appropriate selection or YNBD precultures in 96 w blocks and grown at 30° C. for 24-48 h with 1000 rpm shaking. For assays, 0.5 mL YPD with appropriate selection or YNBD cultures containing substrate were inoculated with 2 μL from precultures and grown at 30° C. for 2-4 days with 1000 rpm shaking with 2% glucose added every 24 h. Assay cultures were quenched by addition of 0.5 mL ethanol with 0.2% formic acid and 0.5 mg/mL pentyl-benzoic acid. Precipitates were pelleted by centrifuging at 4600×g for 10 min and then 200 μL was transferred to fresh plates, sealed, and analyzed via HPLC.
(§3) All samples were quenched with equal volume of EtOH containing 0.2 mg/mL internal standard (3,5-Diisopropyl-2-hydroxybenzoic acid CAS #2215-21-6) centrifuged, and clarified solutions were analyzed by HPLC-MS
(§4) • Column: 2.1×50 mm COSMOCORE PBr (Nacalai USA, Inc.) • Mobile Phase: A; 0.1% formic acid in water, B; 0.1% formic acid in acetonitrile • Flow: 0.45 mL/min • Temp: % 50 Celsius • Gradient: 20%B at 0 min, 70%B at 2.3 min, 89% B at 4.2 min, 20% B at 4.3 min, 20%B at 6 min

A further assay concerns divarinic acid (DVA). The assay is described as follows: Screening of MPT library hits in Yarrowia, DVA feed (Example 2). The class given is cell-based. Conditions: DVA Feed (96 h); for CBGVA: 2 mM DVA, minimal media, 0.5% ethanol, strain sCL-SE-0128, product accumulated; for CBGVA/FCBGVA: product ratio. How it is done: as §1, §2, §3, §4
In assay [2] the test system is olivetolic acid. The assay can be described thus: MPT fusions with GPS1.1 vs unfused MPTs, OA feed (Example 8, Table 9). Type of assay: cell-based, Yarrowia. Conditions: 2 mM olivetolic acid, 48 h quench; for CBGA / FCBGA: 2% glucose, strain sCL-SE-0128; for CBGA/FCBGA: product ratio. On the procedure:
(§5) As described below, plasmids pCL-SE-0406, pCL-SE-0664, pCL-SE-0663, pCL-SE-0662, pCL-SE-0380 (MPT4), pCL-SE-0337.MPT21, pCL-SE-0337.MPT26, and pCL-SE-0337.MPT31 were transformed into strain sCL-SE-0128. Multiple colonies per transformation were precultured for 48 h in YNB containing glucose (2%), casamino acids (0.5%), and MES (100 mM pH 6.5). Pre-culture was used to inoculate assay medium comprised of YNB containing glucose (2%), casamino acids (0.5%), MES (100 mM pH 6.5), and olivetolic acid (2 mM). Cultures were quenched with equal volume of ethanol after 48 h total growth and assayed for CBGA and FCBGA. Averages and standard deviations were calculated from replicates.
as §2, §3, §4

The subject of assay [3] is divarinic acid. The assay is described as follows: MPT fusions with GPS1.1 vs unfused MPTs, DVA feed (Example 9, Table 11). Type of assay: cell-based, Yarrowia. Conditions: 2 mM divarinic acid. How it is done: as §5, with “pCL-SE-0337.MPT21,” for “pCL-SE-0337.MPT21, pCL-SE-0337.MPT26, and pCL-SE-0337.MPT31”, “divarinic” for “olivetolic”, “quenched” for “quenched with equal volume of ethanol”, “CBGVA” for “CBGA”, “FCBGVA.” for “FCBGA.”
as §2, §3, §4

The test system of assay [4] is olivetolic acid. The assay is described as follows: MPT4.1 with and without GPS1.1 fusion vs MPT4 fusion, in vivo assay (Example 5). Type of assay: cell-based, Yarrowia. Conditions: 3 mM olivetolic acid. On the procedure: As described below, plasmids pCL-SE-0337.MPT4.1 and pCL-SE-0753 were transformed into strain sCL-SE-0128. Multiple colonies per transformation were precultured for 24 h in YNB containing glucose (2%), casamino acids (0.5%), and MES (100 mM pH 6.5). Pre-culture was used to inoculate assay medium comprised of YNB containing glucose (6%), casamino acids (0.5%), MES (100 mM pH 6.5), and olivetolic acid (3 mM). Cultures were quenched with equal volume of ethanol after 48 h total growth and assayed for CBGA and FCBGA. Averages and standard deviations were calculated from replicates.
as §2, §3, §4

Assay [5] has as its system olivetolic acid. The assay can be described thus: GPS1.1 fusions of MPT21 mutants, OA feed (Example 8, Table 10). Type of assay: cell-based, Yarrowia. The following applies: 3 mM olivetolic acid, 6% glucose, 48 h quench; strain sCL-SE-0128. How it is done:
as §2, §3, §4

Assay [6] relates to divarinic acid. The assay is described as follows: GPS1.1 fusions of MPT21 mutants, DVA feed (Example 9, Table 12). Type of assay: cell-based, Yarrowia. Conditions: 2 mM divarinic acid, 2% glucose, quenched after 48 h; strain sCL-SE-0128. On the procedure:
as §2, §3, §4

Assay [7] deals with olivetolic acid. The assay is described as follows: GPS-APT fusions, OA feed in vivo assay (Example 11). Type of assay: cell-based, Yarrowia. The method, boiled down: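 Yeast strain sCL-SE-0128 carrying GPS1.1–APT73.77 fusion plasmids (N- or C-terminal, various linkers) was precultured 48 h, then grown in YNB/glucose/casamino acids/MES pH 6.5 with 2 mM olivetolic acid. After 48 h total growth, cultures were quenched with equal-volume ethanol and CBGA/FCBGA measured by HPLC-MS against internal standard.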

The mark [8] stands for this setting: 2% glucose, quenched after 48 h, strain sCL-SE-0128.
Where [9] appears, read: 6% glucose, 48 h quench, strain sCL-SE-0128.
Where [10] appears, read: olivetolic acid feed as in Example 8, 48 h quench, strain sCL-SE-0128.

B1: MPT26 (protein)
chain: MSDNSIATKILNFGHTCWKLQRPYVVKGMISIACGLFGKELLHNTNLISWGLMWKAFFALVPILSFNFFAAIMNQIYDVDIDRINKPDLPLVSGEMSIETAWILSIIVALTGLIVTIKLKSAPLFVFIYIFGIFAGFAYSVPPIRWKQNPSTNFLITISSHVGLAFTSYSATTSALGLPFVWRPAFSFIIAFMTVMGMTIAFAKDISDIEGDAKYGVSTVATKLGARNMTFVVSGVLLLNYVAAILAGIIWPQAFNSNVMLLSHAILAFWLILQTRDFALTNYDPEAGRRFFEFIWLLYYAEYFVYVFI
modifications: MPT26 (recombinant membrane-bound prenyltransferase)
For the molecule B1, in the assay on olivetolic acid [1], the CBGA was found to be 261 ± 62 µM and the CBGA/FCBGA turned out to be 4.5. For the same molecule, in the assay with divarinic acid (DVA), the CBGVA is 620 ± 134 µM and the CBGVA/FCBGVA amounted to 13.7. Moreover, in the assay with olivetolic acid [2], the CBGA is 61 ± 5 µM, the FCBGA was determined as 14 ± 1 µM and the CBGA/FCBGA was determined as 4.4.

B2: MPT21 (protein)
chain: MSDNSIATKILNFGHTCWKLQRPYVVKGMISIACGLFGKELLHNTNLISWGLMWKAFFALVPILSFNFFAAIMNQIYDVDIDRINKPDLPLVSGEMSIETAWILSIIVALTGLIVTIKLKSAPLFVFIYIFGIFAGFAYSVPPIRWKQNPSTNFLITISSHVGLAFTSYYASRAALGLPFELRPSFTFLLAFMTVMGMTIAFAKDISDIEGDAKYGVSTVATKLGARNMTFVVSGVLLLNYVAAILAGIIWPQAFNSNVMLLSHAILAFCLIFQTRELALANYASAPSRQFFEFIWLLYYAEYFVYVFI
modifications: MPT21 (recombinant membrane-bound prenyltransferase)
With B2, in the assay on olivetolic acid [1], the CBGA was determined as 310 ± 11 µM and the CBGA/FCBGA came out at 3.1. In the assay with divarinic acid (DVA), the CBGVA was determined as 647 ± 45 µM and the CBGVA/FCBGVA came to 6.0. In the assay with olivetolic acid [2], the CBGA was determined as 109 ± 27 µM, the FCBGA stood at 43 ± 10 µM and the CBGA/FCBGA was determined as 2.6. Also, in the assay with divarinic acid [3] (setting [8]), the CBGVA was determined as 9 ± 3 µM and the FCBGVA is 1 ± 1 µM. In the assay on divarinic acid [3] (48 h, product ratio), the CBGVA/FCB is recorded as 10.8.

B3: GPS1.1-F11-MPT4.1: fusion of GPS1.1 and MPT4.1 via F11 linker, SEQ ID NO: 56 (protein)
chain: MSKAKFESVFPRISEELVQLLRDEGLPQDAVQWFSDSLQYNCVGGKLNRGLSVVDTYQLLTGKKELDDEEYYRLALLGWLIELLQAFWLVSDDIMDESKTRRGQPCWYLKPKVGMIAIWDAFMLESGIYILLKKHFRQEKYYIDLVELFHDISFKTELGQLVDLLTAPEDEVDLNRFSLDKHSFIVRYKTAYYSFYLPVVLAMYVAGITNPKDLQQAMDVLIPLGEYFQVQDDYLDNFGDPEFIGKIGTDIQDNKCSWLVNKALQKATPEQRQILEDNYGVKDKSKELVIKKLYDDMKIEQDYLDYEEEVVGDIKKKIEQVDESRGFKKEVLNAFLAKIYKRQKGGAEAAAKEAAAKAGGSGGGSGGGGSGGSGGGGSGGGGSMSDNSIATKILNFGHTCWKLQRPYAVKGMISIACGLFGRELFNNRHLFSWGLMWKAFFALVPILSFNFFAAIMNQIYDVDIDRINKPDLPLVSGEMSIETAWILSIIVALTGLIVTIKLKSAPLFVFIYIFGIFAGFAYSVPPIRWKQYPFTNFLITISSHVGLAFTSYSATTSALGLPFVWRPAFSFIIAFMTVMGMTIAFAKDISDIEGDAKYGVSTVATKLGARNMTFVVSGVLLLNYLVSISIGIIWPQVFKSNIMILSHAILAFCLIFQTRELALANYASAPSRQFFEFIWLLYYAEYFVYVFI
modifications: GPS1.1-F11-MPT4.1, geranyl diphosphate synthase, point mutant membrane-bound prenyltransferase fusion protein
For the molecule B3, the CBGA with olivetolic acid [4] (setting [9]) came to 425 ± 11 µM; in the assay on olivetolic acid [5] it was 358 ± 0 µM; in the assay with olivetolic acid [7] (setting [10]), 365 ± 22 µM. Besides, the FCBGA in the assay on olivetolic acid [4] (setting [9]) stood at 34 ± 1 µM; in the assay on olivetolic acid [5] it was 27 ± 0 µM; in the assay on olivetolic acid [7] (setting [10]), 26 ± 1 µM. Besides, the CBGA/FCBGA with olivetolic acid [4] (48 h quench, product ratio) stood at 12.6. The “increase of the titer of CBGA” value in the assay with olivetolic acid [4] (fusion vs unfused MPT4.1, 48 h) stood at 67%. This molecule returned a CBGVA in the assay with divarinic acid [6] of 91 ± 6 µM. The FCBGVA in the assay with divarinic acid [6] is 0 ± 0 µM. Further, the CBGA/FCBG with olivetolic acid [7] (olivetolic acid feed, 48 h quench, product ratio) is listed as 14.3.

B4: MPT31 (protein)
chain: MSDNSIATKILNFGHACWKLQRPYVVKGMISIACGLFGRELLHNTNLISWGLMWKAFFALVPILSFNFFAAIMNQIYDLHIDRINKPDLPLASGEISVNTAWIMSIIVALTGLIVTIKLKSAPLFVFIYIFGIFAGFAYSVPPIRWKQNPSTNFLITISSHVGLAFTSYYASRAALGLPFELRPSFTFLLAFMTVMGMTIAFAKDISDIEGDAKYGVSTVATKLGARNMTFVVSGVLLLNYLVSISIGIIWPQVFKSNIMILSHAILAFWLILQTRDFALTNYDPEAGRRFFEFIWLLYYAEYLVYVFI
modifications: MPT31 (recombinant membrane-bound prenyltransferase)
For B4, in the assay on olivetolic acid [1], the CBGA came out at 175 ± 63 µM and the CBGA/FCBGA is reported as 13.9. In the assay with divarinic acid (DVA), the CBGVA stood at 260 ± 79 µM and the CBGVA/FCBGVA is listed as 22.6. In the assay on olivetolic acid [2], the CBGA turned out to be 40 ± 12 µM, the FCBGA came out at 3 ± 2 µM and the CBGA/FCBGA amounted to 13.4.
